The record followed here is the nanobody polyreactivity screen of Harvey et al. (2022).

A short description of the data set: yeast display, Sf9 membrane polyspecificity reagent, FACS + sequencing; frameworks hold sequencing errors. Put shortly:
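Polyreactivity labels are assigned by the sorting gate from which each nanobody was recovered. The gates were low and high (top ~1%), set on anti-HA fluorescence for expression and streptavidin fluorescence for reagent binding. Before sorting, galactose-induced (36–48 hours) yeast display cells were stained for 1 hour at 4 °C with 10% biotinylated, detergent-solubilized Sf9 membrane reagent.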
Turning to “QVHLVESGGGLDQAGGSLRLSCAASGSTFSGYAMGWYRQAPGKERELVAAISSTGRTYYADSVKGRFTISRDNAKNTVYLQMNSLIPEDTALYYCAAKRYTVYGHKYEYWGQGTQVTVSS”, the “polyreactivity (PSR sort gate)” value is “high polyreactivity”.

For the sequence “QVHLVESGGGLDQAGGSLRLSSASSGRIIVRNAMGCYRQAPGKERELVADISSSGGRTYYADSVKGRFTISRDNAKNTVYLQMNSLKPEDTAVYYCAASSSNNEYDYWGQGTQETVSS”, the “polyreactivity (PSR sort gate)” value is reported as “high polyreactivity”. For “QVHLVESGGGLVHAGGSLRLSCAASRSTFRNYAMGWYRQAHGKEREFVATINWIGGTTYYADSVKGRFTLSRDNAKNTVDLQMNSLKPVDTGVYYCAAQFDYYPWGGYWGQGTQVTVSS” the value was “high polyreactivity”; for “QVHLVESGGGLVKAGGSLRLSCAASGGTIFVYMGWYRQDPGKETELVADISGSGGGTYYADSVKGRFTISRDNAMNTVYLQMNSLKPEDTAVYYCAAYYGHTYNGYYYWGQGTQVTVSS”, “low polyreactivity”; for “QVHLVESGGGLVKAGGSLRLSCAASGNTFLWYAMGWYRQAPGKERELVAAITYSGGSTYYADSVKGRFTISRDNAKNTVYLQMNSLKPEYTPVYYCAAVGSYLAGYQFDYWGQGTQVNVSS”, “low polyreactivity”. For “QVHLVESGGGLVKAGGSLRLSCAASGRTFAQYVMGWYRQAPGKERELVAAITWSGGSSYYADSVKGRFTISRDNAKNTVYLQMNSLKPEDTALYYCAVKGAGGPKDDYWGQGTQVTVSS”, the “polyreactivity (PSR sort gate)” value was “high polyreactivity”. Next, “QVHLVESGGGLVQAGCSLRLICAASGRIFTLYAMGWYRQAPGTEMEFVAAINRGGSTNYADSVKGRFTISRDNAKNTVYLQMNSLKPEVTAVYYCAAITTSRFRTYSYDYWGQGTKVTVSS”: “high polyreactivity”. Next, “QVHLVESGGGLVQAGCSLRVSCAASGRIFLYTGKGWSRQAAGKERELVAAISSGGSTYYADSVKGRFTISRDNAKNTVYLQMNSLKPEDTAVYYCAKEGHVVIFYIGQYELDFWGQGTQVTVSS”: “low polyreactivity”; “QVHLVESGGGLVQAGGCLRLICAASGSIFVPYAMGWYRQAPVKERELVAAISRGGDTNYADSVKGRFTISRDNAKNTVYLQMKSLKPEDTAVYYCAKSGYGNRGFDYWGQGTQVSVSS”: “low polyreactivity”; “QVHLVESGGGLVQAGGILRLSCAAYGSTFKSYAMGWYRLAPGKERELVAAISSSTGRTYYADSVKGRFTISLDYAKNTVYLQMNSMKPEDTAVYYCNAVHRYERDYCGQGTQVTVSS”: “high polyreactivity”. Turning to “QVHLVESGGGLVQAGGRLRLSCAASGSIFFRYAMGWYRQAPGKERELVAAINSRGGRTYYADSVKGRFTISRDNAKNTVYLQMNSLKPEDTAVYYCAAKGYWAKGGKTYGGYDYWGQGTQVTGSS”, the “polyreactivity (PSR sort gate)” value is “high polyreactivity”. Take “QVHLVESGGGLVQAGGSHRLSCAASGSISFIYAMGWYIQAPGKERELVAAITSSGGSTYYADSVKGRFTISRDNAQNTVYLQMNSLKPDDTAVYYCAAERWTSRHYSGNDYWGQGTQVTVSS”: the “polyreactivity (PSR sort gate)” value is “low polyreactivity”. For the sequence “QVHLVESGGGLVQAGGSHSLSCAASGITFPLYVMGSYRQAPGKERELVAAISASGGSTYADSVKGRFTISRDNAKNTVYLQMNSLKPEDTAVYYCNAAVYVGYEYDYWGLGTQVTVSS”, the “polyreactivity (PSR sort gate)” value is recorded as “low polyreactivity”. Consider “QVHLVESGGGLVQAGGSLGLSCAASGFTFTRNTMGWYRQAPGKERELVAAITRGGSTNYADSVKGRFTISRDNAKNTVYLQMNSLKPEDTAVYYCNKGRNVVLVRTADDYWGQGTQVTVSS”, for which the “polyreactivity (PSR sort gate)” value was “low polyreactivity”. For the sequence “QVHLVESGGGLVQAGGSLLLSCAASGFTFRTNAMGWNRQAPGKERELVAVISRRGGSTYYADSVKGRFTISRDNAKNTVYIQMNSLKPEDTAVYYCNAGDGTVGRTYYRSYDYWGQGTQVTVSS”, the “polyreactivity (PSR sort gate)” value is on record as “high polyreactivity”. Take “QVHLVESGGGLVQAGGSLPLSCAASGRTFIYNTMGWYRPAPGKERELVAAITRNGGSTNYADSVKGRFTISRDNAKNTVYLQMNSLKPEDTAVYYCAAKYIRFARSRDYWGQGTQVTVSS”: the “polyreactivity (PSR sort gate)” value is on record as “high polyreactivity”. For “QVHLVESGGGLVQAGGSLRLICAASGRILTFNAMGWYRQAPGKERELVAGINWSGDSTYYADSVKGRFTISRDNAKNTVYLQINSLKPEDTAFYYCTKYSYKAHFNYWGQGTQVTVSS” the value was “low polyreactivity”; for “QVHLVESGGGLVQAGGSLRLICAATGFIFGSYAMGWYRQAPGKERELVAAINWSGGNTYYADSVKGRFTISRDNEKNTVYLQMNSLKPEDTAVYYCAAQYVTSRFDYWGQGTQVTVSS”, “high polyreactivity”. On to “QVHLVESGGGLVQAGGSLRLSCAAAGSTVVYNVMGWYRQAPGKERELVAAIRWRGGSTYADSVKGRFTISRDNAKKTVYLQMNSLKPEDTAVYYCAAGIPRYWYAGHYDYWGQGTQVTVSS”, for which the “polyreactivity (PSR sort gate)” value was “low polyreactivity”. For the sequence “QVHLVESGGGLVQAGGSLRLSCAASGFIFFYYAMGWYRQAPGTERELVAAISRSGGSTYYADSVKGRFTISRDNAKNTVYFQMNSLKPEDTAVYYCAAVWPVIYGMDYWGQGTQVTVSS”, the “polyreactivity (PSR sort gate)” value is listed as “high polyreactivity”. Turning to “QVHLVESGGGLVQAGGSLRLSCAASGFIFGYNARGWYRQAPAKERELVAAINWSGGRTYYADSVKGRFTISRDIAKNTVYLQMNSLKPEVTAVSYCNADGSRRYNYWGQGSQVTVSS”, the “polyreactivity (PSR sort gate)” value is “low polyreactivity”. Take “QVHLVESGGGLVQAGGSLRLSCAASGFIFNYYAMGWYRQAPGKERELVAAISWRGTSTYYADSVKGRFTISRDNAKNTVYLQMNSLKPEDNAVYYCAAAKYPYVRRAWNFVGYDYWGQGTQVTVSS”: the “polyreactivity (PSR sort gate)” value is “high polyreactivity”. As for “QVHLVESGGGLVQAGGSLRLSCAASGFIFYSNSMGWYRPAPGKERELVAAISSGGGSTRYADSVKGRFTISRDNAKNTVYLQMNSLKPEDTAVYYCASRDGYTIFRSTRYYYWGEGTQVTVSS”, the “polyreactivity (PSR sort gate)” value is listed as “high polyreactivity”. For “QVHLVESGGGLVQAGGSLRLSCAASGFIFYYYAMGWYRQAPGKERELFARISRRGGSTYYADSVKGRFTISRDNAKNTVYLQMNSLKPEDTAVYYCAAVYLVYYGVSDMDYWGQGTKVTVSS” the value was “high polyreactivity”; for “QVHLVESGGGLVQAGGSLRLSCAASGFNLLPYALGWYRQAQGKERELVATINSGDSTYADSVKGRFTISRDNAKNTVYLQMNSLKPEDTAVYYCNAYWLVVPVDLDYWGQGTQVTVSS”, “low polyreactivity”.

For the sequence “QVHLVESGGGLVQAGGSLRLSCAASGFTFGINAMGWYRQAPGKERELVAAINQSGDRTYYADSVKGRFTISRDNAKNPVYLELNSLKPDDTAVYYCAADTSYWYDYYIDYVGYYYWGQGTQVTVSS”, the “polyreactivity (PSR sort gate)” value is recorded as “high polyreactivity”.

Consider “QVHLVESGGGLVQAGGSLRLSCAASGFTFIRYAMGWYRQAPGKETELVAAISVSGGRTYYADSVKGRFTISRDNAKNTVYLQMNSLKPEDTAVYYCARRPSYYQGDYWGQGTQVTVSS”, for which the “polyreactivity (PSR sort gate)” value is “high polyreactivity”.

Turning to “QVHLVESGGGLVQAGGSLRLSCAASGFTFNWYAMGWYRHAPGKERELVAAINSSGGNTYYADSVKGRFTISRDNAKNTVYLQMNSLKPEDTAVYYCAALLWGYVAFDYWGQGTQVTVSS”, the “polyreactivity (PSR sort gate)” value is “high polyreactivity”. As to “QVHLVESGGGLVQAGGSLRLSCAASGFTFPEYYMGWYRQAPGKESELVAAINYSDGRTFYADSVKGRFTISRDNAKNSVYLQMNSLKPEDTAVYYCASDLSYDVWFFGPDYDYSGQGTQVTVSS”, the “polyreactivity (PSR sort gate)” value is “low polyreactivity”. Next, “QVHLVESGGGLVQAGGSLRLSCAASGFTFRDYAMGWYRQAPGKERELVAAIDIGTTTYYADSVKGRFTISRDNAKNTVYLQMNSLKPEDTAVYYCAAYSFASVYFGTGYDYWGQGTQVTVSS”: “low polyreactivity”.
